The source of these data is patent publication US12383631B2, “Immune antigen specific IL-18 immunocytokines and uses thereof” (Bright Peak Therapeutics AG, priority 2022, dated 2025).

pKd: −log10 of the molar value.

Assay [1] has as its target human Fc gamma receptor III FcγRIIIa/CD16. Nature of the assay: Human FcγR binding ELISA, FcγRIIIa (Example 8). To be noted: antibody coated on plate, soluble receptor titrated, read-out: FcγRIIIa (CD16) binding affinity. On the procedure:
(§1) The interaction of the unmodified and of conjugated antibodies with human Fc gamma receptors I (FcγRI/CD64), with human Fc gamma receptors IIa (FcγRIIa/CD32a), with inhibitory human Fc gamma receptors IIb (FcγRIIb/CD32b), and with human Fc gamma receptors III FcγRIIIa/CD16 were measured by ELISA.
(§2) Briefly, Corning high-binding half-area plates (Fisher Scientific, Reinach, Switzerland) were coated overnight at 4° C. with 25 μl of unmodified and of conjugated anti-PD1 antibodies at 2.5 μg/ml in PBS. Plates were then washed four times with 100 μl of PBS-0.02% Tween20. Plates surfaces were blocked with 25 μl of PBS-0.02% Tween20-1% BSA at 37° C. during 1 h. Plates were then washed four times with 100 μl of PBS-0.02% Tween20. Then twenty-five microliters of either recombinant Human Fc gamma RI/CD64 Protein (R&D systems, 1257-FC-050, CF), recombinant Human Fc gamma RIIA/CD32a (H167) Protein (R&D systems, 9595-CD-050, CF), recombinant Human Fc gamma RIIB/CD32b Avi-tag Protein (R&D systems, AVI1875-050, CF), or recombinant Human Fc gamma RIIIA/CD16a Protein (R&D systems, 4325-FC-050; CF) were added in five-fold serial dilutions ranging from 1000 nM to 0.001 nM into PBS-0.02% Tween20-0.1% BSA and incubated at 37° C. during 2 h. Plates were then washed four times with 100 μl of PBS-0.02% Tween20. Twenty-five microliters of a 1/500 HRP-anti-His antibody in PBS—0.02% Tween20-0.1% BSA (R&D systems, anti-HIS—HRP Ab, #MAB050H) were added to each well and plates were incubated at Room Temperature during 1 h. Plates were then washed four times with 100 μl of PBS-0.02% Tween20. Fifty microliters of TMB substrate reagent (#CL07, Merck, Buchs, Switzerland) were added to each well and incubated at 37° C. during 5 min. After 5 min at 37° C., Horseradish peroxidase reaction was stopped by adding 50 μl/well of 0.5M H2SO4 stop solution. ELISA signal was then measured at 450 nm on an EnSpire plate reader from Perkin Elmer (Schwerzenbach, Switzerland).
For orientation: In an ELISA, binding on a coated surface is turned into a signal by an enzyme label.

Assay [2] deals with T1, human Fc gamma receptor IIa (FcγRIIa/CD32a) (Homo sapiens, UniProt P12318).
T1 sequence (P12318 36-218): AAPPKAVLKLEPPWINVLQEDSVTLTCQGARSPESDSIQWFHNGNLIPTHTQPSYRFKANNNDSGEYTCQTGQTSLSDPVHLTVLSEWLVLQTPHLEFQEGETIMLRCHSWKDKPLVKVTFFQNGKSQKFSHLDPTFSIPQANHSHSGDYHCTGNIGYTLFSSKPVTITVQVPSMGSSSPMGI
Nature of the assay: Human FcγR binding ELISA, FcγRIIa (Example 8). To be noted: antibody coated on plate, soluble receptor titrated, read-out: FcγRIIa (CD32a) binding affinity. The procedure: as §1, §2

For assay [3], the target named is human Fc gamma receptor I (FcγRI/CD64) (Homo sapiens, UniProt P12314). Nature of the assay: Human FcγR binding ELISA, FcγRI (Example 8). The conditions noted are these: antibody coated on plate, soluble receptor titrated, read-out: FcγRI/(CD64) binding affinity. The procedure: as §1, §2
Assay [4] deals with T2, human Fc gamma receptor IIb (FcγRIIb/CD32b) (Homo sapiens, UniProt P31994).
T2 sequence (P31994 43-310): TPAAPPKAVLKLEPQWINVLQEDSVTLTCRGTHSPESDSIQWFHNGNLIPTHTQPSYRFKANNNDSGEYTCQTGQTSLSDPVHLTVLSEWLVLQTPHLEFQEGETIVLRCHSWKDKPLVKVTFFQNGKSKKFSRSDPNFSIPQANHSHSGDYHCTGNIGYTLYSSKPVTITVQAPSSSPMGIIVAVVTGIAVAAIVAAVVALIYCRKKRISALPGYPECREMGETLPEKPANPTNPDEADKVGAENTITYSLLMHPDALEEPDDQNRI
Nature of the assay: Human FcγR binding ELISA, FcγRIIb (Example 8). The conditions noted are these: antibody coated on plate, soluble receptor titrated, read-out: FcγRIIb (CD32b) binding affinity. The procedure:
as §1, §2

Assay [5] deals with human neonatal Fc receptor (FcRn) (Homo sapiens, UniProt P55899). Nature of the assay: Human FcRn binding AlphaLISA at pH 6 (Example 9). To be noted: AlphaLISA competition. The procedure: The interaction of the unmodified and of conjugated anti-PD1 antibodies with the human neonatal Fc receptor (FcRn) at pH 6 was measured using the AlphaLISA® Human FcRn Binding Kit (AL3095C) from Perkin Elmer (Schwerzenbach, Switzerland). […] When reference IgG binds to FcRn, donor and acceptor beads come into proximity enabling the transfer of singlet oxygen that trigger a cascade of energy transfer reactions in the acceptor beads, resulting in a sharp peak of light emission at 615 nm. Addition of a free IgG antibodies into the AlphaLISA® mixture creates a competition for the binding of FcRn to the reference antibody resulting in a loss of signal.
After 90 min at 23° C. in the dark, AlphaLISA® signal was measured on an EnSpire plate reader (Excitation at 680 nm, Emission at 615 nm) from Perkin Elmer (Schwerzenbach, Switzerland).
In general terms: Bead proximity is the source of the signal in Alpha formats.

Assay [6] has as its target PD-1/PD-L1 interaction (Homo sapiens, UniProt Q15116+Q9NZQ7). Put plainly: PD-1/PD-L1 Blockade Bioassay, Jurkat NFAT-RE luciferase / PD-L1 aAPC CHO-K1 (Example 7). To be noted: table titled activity in the PD-1/PD-L1 Blockade Cellular Assay; NFAT-RE luminescence, 6 h; read-out: KD FcRn. It is filed as cell-based. The procedure: For immunocytokine compositions which comprise PD-1 or PD-L1 antibodies or antigen binding fragments, the experiment outlined below is performed to assess the ability of the immunocytokines to interfere with the PD-1/PD-L1 pathway. The assay is the PD-1/PD-L1 Blockade Bioassay from Promega (Cat #J1250, Madison, WI, USA). PD-1/PD-L1 Blockade Bioassay is a bioluminescent cell-based assay based on the co-culture of effector cells with target cells mimicking an immunological synapse. Jurkat T cells expressing human PD-1 and a luciferase reporter driven by a NFAT response element (NFAT-RE) are activated by CHO-K1 cells expressing human PD-L1 and an engineered cell surface protein designed to activate Jurkat cells cognate TCRs. Concurrent interaction PD-1/PD-L1 inhibits TCR signaling and represses NFAT-RE-mediated luminescence. […]
Briefly, PD-L1 aAPC/CHO-K1 Target cells were plated in white tissue culture 96-wells plates and cultured overnight at 37° C./5% CO2. Test molecules were measured in four-fold serial dilutions starting at 1 μM down to 0.002 nM and pre-incubated on target cells for 10 min before the addition of freshly thawed PD-1 Jurkat effector cells. After 6 h at 37° C./5% CO2, activity NFAT-RE luminescent reporter was evaluated by the addition of Bio-Glo reagent and measured on an ENSPTRE® plate reader (1 sec/well) from Perkin Elmer (Schwerzenbach, Switzerland).

Chain of human Fc gamma receptor III FcγRIIIa/CD16 (P08637 17-254): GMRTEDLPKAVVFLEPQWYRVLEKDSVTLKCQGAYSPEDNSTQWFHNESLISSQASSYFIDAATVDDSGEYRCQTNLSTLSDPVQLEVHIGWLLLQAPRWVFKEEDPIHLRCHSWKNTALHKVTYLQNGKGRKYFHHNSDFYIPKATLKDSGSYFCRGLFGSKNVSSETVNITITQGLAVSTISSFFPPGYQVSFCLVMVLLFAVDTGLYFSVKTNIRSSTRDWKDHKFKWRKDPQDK
Chain of human Fc gamma receptor I (FcγRI/CD64) (P12314 16-374): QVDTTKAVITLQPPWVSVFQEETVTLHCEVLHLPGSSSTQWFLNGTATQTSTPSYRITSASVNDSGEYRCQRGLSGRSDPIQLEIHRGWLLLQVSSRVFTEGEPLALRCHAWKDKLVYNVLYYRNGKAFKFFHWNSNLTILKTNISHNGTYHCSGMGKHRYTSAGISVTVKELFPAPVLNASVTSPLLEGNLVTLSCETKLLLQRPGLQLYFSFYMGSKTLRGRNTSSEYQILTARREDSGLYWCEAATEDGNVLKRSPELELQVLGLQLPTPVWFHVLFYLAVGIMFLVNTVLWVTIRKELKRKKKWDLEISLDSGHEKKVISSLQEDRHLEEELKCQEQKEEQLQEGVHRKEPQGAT
Chain of PD-1/PD-L1 interaction (Q15116 25-288): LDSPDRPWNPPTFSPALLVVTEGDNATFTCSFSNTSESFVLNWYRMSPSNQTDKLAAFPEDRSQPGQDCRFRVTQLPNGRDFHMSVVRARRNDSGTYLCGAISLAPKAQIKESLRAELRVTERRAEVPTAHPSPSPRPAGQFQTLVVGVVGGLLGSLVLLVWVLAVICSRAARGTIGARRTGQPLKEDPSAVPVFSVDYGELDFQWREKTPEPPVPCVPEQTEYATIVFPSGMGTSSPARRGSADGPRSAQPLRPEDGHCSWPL
Chain of PD-1/PD-L1 interaction (Q9NZQ7 19-290): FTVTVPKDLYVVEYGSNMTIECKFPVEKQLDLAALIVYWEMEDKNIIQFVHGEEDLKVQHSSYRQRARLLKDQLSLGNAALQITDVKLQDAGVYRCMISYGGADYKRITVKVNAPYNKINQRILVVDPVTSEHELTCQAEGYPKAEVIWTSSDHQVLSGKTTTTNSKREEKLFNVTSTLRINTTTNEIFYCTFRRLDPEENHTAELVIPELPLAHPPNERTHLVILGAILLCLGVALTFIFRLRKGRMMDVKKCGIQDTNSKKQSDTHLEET
Chain of human neonatal Fc receptor (FcRn) (P55899 24-297): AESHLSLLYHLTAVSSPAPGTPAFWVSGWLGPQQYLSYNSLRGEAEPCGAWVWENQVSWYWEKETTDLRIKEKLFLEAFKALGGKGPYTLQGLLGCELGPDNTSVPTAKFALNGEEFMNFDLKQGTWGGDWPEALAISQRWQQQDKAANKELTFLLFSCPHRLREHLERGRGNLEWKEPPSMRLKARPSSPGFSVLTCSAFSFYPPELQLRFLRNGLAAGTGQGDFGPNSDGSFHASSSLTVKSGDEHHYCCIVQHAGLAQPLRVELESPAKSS
Chain of human neonatal Fc receptor (FcRn) (P61769 21-119 partner): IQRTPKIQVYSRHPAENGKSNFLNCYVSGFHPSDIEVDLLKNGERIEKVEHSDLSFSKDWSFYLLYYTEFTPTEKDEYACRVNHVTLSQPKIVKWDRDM

Consider “Atezolizumab/Tecentriq: anti-PD-L1 antibody, unconjugated reference antibody [reference compound]”, for which the pKd in assay [1] is 6.45; in assay [2], 5.86; in assay [3], 8.04; in assay [4], less than 5.00; in assay [5] it was 8.19. In assay [6], the PD-1/PD-L1 blockade potency was determined as 0.664 nM.
Regarding “Composition B: immunocytokine: Atezolizumab/Tecentriq (anti-PD-L1) conjugated to IL-18 polypeptide SEQ ID NO: 30”, the pKd in assay [1] is 6.31; in assay [2], 5.76; in assay [3], 7.96; in assay [4], less than 5.00.
As for “LZM-009: anti-PD-1 antibody (VH SEQ ID NO: 376, VL SEQ ID NO: 377), unconjugated reference antibody [reference compound]”, the pKd in assay [1] was 5.77; in assay [2] it was 5.87; in assay [3] it was 9.50; in assay [4] it was 5.58; in assay [5] it was 8.22. Besides, the PD-1/PD-L1 blockade potency in assay [6] was 5.8 nM.
